Laboratory results from patent publication US20250051465A1 (published 2025).

Legend:
[1] = molecular target: T1, full length human LEPR on cells (human, UniProt P48357 22-1165); assay: cell-based or functional assay
T1 sequence: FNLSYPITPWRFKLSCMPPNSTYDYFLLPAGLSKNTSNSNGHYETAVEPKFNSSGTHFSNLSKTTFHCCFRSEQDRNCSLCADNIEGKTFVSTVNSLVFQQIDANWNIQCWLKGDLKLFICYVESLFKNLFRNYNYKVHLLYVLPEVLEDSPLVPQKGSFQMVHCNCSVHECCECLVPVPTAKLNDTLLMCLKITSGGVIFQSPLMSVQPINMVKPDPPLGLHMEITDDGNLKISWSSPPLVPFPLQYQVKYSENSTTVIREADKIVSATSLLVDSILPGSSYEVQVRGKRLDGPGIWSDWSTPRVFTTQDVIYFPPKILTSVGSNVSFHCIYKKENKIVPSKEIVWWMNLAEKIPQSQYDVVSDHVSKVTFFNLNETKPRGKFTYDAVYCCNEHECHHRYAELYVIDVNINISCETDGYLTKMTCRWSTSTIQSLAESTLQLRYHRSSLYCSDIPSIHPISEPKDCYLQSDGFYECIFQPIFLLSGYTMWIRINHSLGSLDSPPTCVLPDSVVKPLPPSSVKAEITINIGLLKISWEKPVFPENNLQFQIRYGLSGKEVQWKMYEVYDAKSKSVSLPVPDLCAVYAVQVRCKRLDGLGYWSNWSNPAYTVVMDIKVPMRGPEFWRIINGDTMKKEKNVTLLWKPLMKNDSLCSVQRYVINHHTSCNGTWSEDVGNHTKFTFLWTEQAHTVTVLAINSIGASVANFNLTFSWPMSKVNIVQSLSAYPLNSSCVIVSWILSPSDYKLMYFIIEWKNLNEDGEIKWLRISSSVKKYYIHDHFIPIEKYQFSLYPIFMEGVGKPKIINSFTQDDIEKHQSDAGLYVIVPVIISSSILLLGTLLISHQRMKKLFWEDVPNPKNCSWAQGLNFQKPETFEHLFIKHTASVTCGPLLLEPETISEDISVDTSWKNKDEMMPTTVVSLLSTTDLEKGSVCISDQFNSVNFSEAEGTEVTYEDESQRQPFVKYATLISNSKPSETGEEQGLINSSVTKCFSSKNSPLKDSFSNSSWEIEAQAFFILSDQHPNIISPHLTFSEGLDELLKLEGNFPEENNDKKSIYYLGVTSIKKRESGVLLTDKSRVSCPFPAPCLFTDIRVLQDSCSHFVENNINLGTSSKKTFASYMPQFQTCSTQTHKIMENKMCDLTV

human LEPR CRH1 (D1)-MMH = molecular target: T2, human LEPR CRH1 (D1)-MMH (human, UniProt P48357 22-229, limits assumed); assay: Luminex, myc-captured LEPR domain
T2 construct: domain: CRH1 (D1); Transiently expressed, captured from supernatant on anti-myc beads
Description: (§1) Aliquots of microspheres with immobilized anti-myc monoclonal antibodies, prepared as described above, were added individually to 1 mL of the each of these protein supernatants. The microspheres were gently mixed, incubated for two hours at 25° C., washed twice with 1 mL of DBPS, centrifuged to remove the supernatant and finally resuspended in 1 mL of DPBS buffer. Forty-eight μL of anti-myc IgG coupled microspheres from individual reactions with full length human LEPR and with each of the human LEPR domain proteins were withdrawn and mixed together in 3.6 mL of PBS+20 mg/mL BSA+0.05% sodium azide (blocking buffer).
(§2) From this mixed pool, 75 μL of microspheres were plated per well on a 96 well filter plate (Millipore, Cat. No: MSBVN1250) and mixed with 25 μL of individual anti-human LEPR monoclonal antibodies (0.5 or 5 µg/mL), incubated for two hours at 25° C. and then washed twice with 200 μL of DPBS with 0.05% Tween 20 (washing buffer). […] After 30 minutes, the samples were washed twice with 200 μL of washing buffer and resuspended in 150 μL of wash buffer. The Median Fluorescence intensity (MFI) of the microspheres was measured in a Luminex Analyzer.

[2] = molecular target: T3, human LEPR CRH1 (D1,D2)-MMH (human, UniProt P48357 22-339, limits assumed); assay: Luminex, myc-captured LEPR domain
T3 construct: domain: CRH1 (D1,D2); Transiently expressed, captured from supernatant on anti-myc beads
Description: as §1, §2

[3] = molecular target: T4, human LEPR CRH1 (D1,D2,D3)-MMH (human, UniProt P48357 22-427, limits assumed); assay: Luminex, myc-captured LEPR domain
T4 construct: domain: CRH1-Ig (D1,D2,D3); Transiently expressed, captured from supernatant on anti-myc beads; also called CRH1-Ig (D1, D2, D3)
Description: as §1, §2

[4] = molecular target: T5, human LEPR CRH1-Ig (D2,D3)-MMH (human, UniProt P48357 230-427, limits assumed); assay: Luminex, myc-captured LEPR domain
T5 construct: domain: CRH1-Ig (D2,D3); Transiently expressed, captured from supernatant on anti-myc beads
T5 sequence (P48357 other isoform, or with tags, fused parts or gaps limits assumed): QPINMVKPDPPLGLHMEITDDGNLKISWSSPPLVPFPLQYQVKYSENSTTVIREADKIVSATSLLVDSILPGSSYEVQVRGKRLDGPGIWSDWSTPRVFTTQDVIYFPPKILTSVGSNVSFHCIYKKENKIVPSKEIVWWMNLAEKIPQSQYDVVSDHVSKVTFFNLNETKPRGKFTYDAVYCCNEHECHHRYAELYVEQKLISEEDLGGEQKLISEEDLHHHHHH
Description: as §1, §2

human LEPR Ig (D3)-MMH = molecular target: T6, human LEPR Ig (D3)-MMH (human, UniProt P48357 340-427, limits assumed); assay: Luminex, myc-captured LEPR domain
T6 construct: domain: Ig (D3); Transiently expressed, captured from supernatant on anti-myc beads
T6 sequence (P48357 other isoform, or with tags, fused parts or gaps limits assumed): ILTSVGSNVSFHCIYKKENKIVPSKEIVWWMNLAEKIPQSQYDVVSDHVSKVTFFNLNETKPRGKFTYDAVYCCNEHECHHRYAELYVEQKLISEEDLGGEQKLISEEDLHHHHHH
Description: as §1, §2

human LEPR CRH2-MMH = molecular target: T7, human LEPR CRH2-MMH (human, UniProt P48357 428-634, limits assumed); assay: Luminex, myc-captured LEPR domain
T7 construct: domain: CRH2; Transiently expressed, captured from supernatant on anti-myc beads
T7 sequence (P48357 other isoform, or with tags, fused parts or gaps limits assumed): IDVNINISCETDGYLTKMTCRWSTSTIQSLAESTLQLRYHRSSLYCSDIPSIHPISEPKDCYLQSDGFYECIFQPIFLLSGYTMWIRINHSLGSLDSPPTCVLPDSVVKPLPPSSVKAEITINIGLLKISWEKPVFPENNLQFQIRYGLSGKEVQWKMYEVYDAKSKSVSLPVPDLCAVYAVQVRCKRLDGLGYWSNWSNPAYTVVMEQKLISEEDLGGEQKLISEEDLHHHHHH
Description: as §1, §2

human LEPR FNIII-MMH = molecular target: T8, human LEPR FNIII-MMH (human, UniProt P48357 636-839, limits assumed); assay: Luminex, myc-captured LEPR domain
T8 construct: domain: FNIII; Transiently expressed, captured from supernatant on anti-myc beads
T8 sequence (P48357 other isoform, or with tags, fused parts or gaps limits assumed): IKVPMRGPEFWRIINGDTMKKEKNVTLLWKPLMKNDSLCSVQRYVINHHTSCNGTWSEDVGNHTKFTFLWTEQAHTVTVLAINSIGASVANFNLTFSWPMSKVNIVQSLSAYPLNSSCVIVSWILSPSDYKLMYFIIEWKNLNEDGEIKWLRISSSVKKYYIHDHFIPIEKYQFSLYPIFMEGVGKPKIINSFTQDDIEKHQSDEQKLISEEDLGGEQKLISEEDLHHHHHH
Description: as §1, §2

[5] = molecular target: T9, human LEPR Ig-CRH2-FNIII-MMH (human, UniProt P48357 330-839, limits assumed); assay: Luminex, myc-captured LEPR domain
T9 construct: domain: Ig-CRH2-FNIII; Transiently expressed, captured from supernatant on anti-myc beads
T9 sequence (P48357 other isoform, or with tags, fused parts or gaps limits assumed): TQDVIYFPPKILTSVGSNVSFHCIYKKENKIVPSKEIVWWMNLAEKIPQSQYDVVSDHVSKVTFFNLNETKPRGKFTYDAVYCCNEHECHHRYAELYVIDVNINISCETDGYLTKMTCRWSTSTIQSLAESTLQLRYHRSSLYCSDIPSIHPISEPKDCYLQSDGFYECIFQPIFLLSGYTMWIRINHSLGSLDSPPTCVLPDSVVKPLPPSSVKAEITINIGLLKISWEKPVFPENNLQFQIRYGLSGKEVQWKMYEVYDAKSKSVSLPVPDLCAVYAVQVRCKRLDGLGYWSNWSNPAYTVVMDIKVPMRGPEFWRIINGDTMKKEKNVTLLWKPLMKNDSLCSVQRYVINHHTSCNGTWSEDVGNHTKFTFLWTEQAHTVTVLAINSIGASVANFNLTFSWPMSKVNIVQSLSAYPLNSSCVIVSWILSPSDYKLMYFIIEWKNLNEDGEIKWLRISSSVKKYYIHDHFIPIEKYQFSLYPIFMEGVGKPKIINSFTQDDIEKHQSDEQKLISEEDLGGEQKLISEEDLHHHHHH
Description: as §1, §2

B1: H4H18445P2 (antibody, human IgG4, V domains shown)
VH: QVQLQESGPGLVKPSQTLSLTCTVSGGSISSGGDYWSWIRQLPGKGLEWIGYIYYSGSAYYNPSLKSRGTISIDTSKNQFSLKLTSVTAADTAVYFCVKLRFLEWFLGGWFGPWGQGTLVTVSS
VL: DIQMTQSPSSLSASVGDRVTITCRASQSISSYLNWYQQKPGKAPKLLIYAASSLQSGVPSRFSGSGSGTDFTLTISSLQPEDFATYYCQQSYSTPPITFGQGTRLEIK
notes: Fully human antibody with human IgG4 Fc (H4H prefix)
% activation, with 200 pM human Leptin [1]: 97% | % activation, without human Leptin [1]: 5% | EC50, STAT3-Luc reporter, with 200 pM human Leptin [1]: 4.1e-10 M | EC50, STAT3-Luc reporter, without human Leptin [1]: 11.9 nM | MFI (human LEPR CRH1 (D1)-MMH): 12 MFI | MFI [2]: 30 MFI | MFI [3]: 22 MFI | MFI [4]: 40 MFI | MFI (human LEPR Ig (D3)-MMH): 19 MFI | MFI (human LEPR CRH2-MMH): 17 MFI | MFI (human LEPR FNIII-MMH): 230 MFI | MFI [5]: 14500 MFI

B2: H4H18449P2 (antibody, human IgG4, V domains shown)
VH: EVQLVESGGGLVQPGGSLRLSCVASGFTFNKYDMHWVRQTTGKGLEWVSGIDTDGDTYYPGSVKGRFTISRENAENSLYLQMNGLRVGDTAVYYCARWPWSGFYGAFDIWGQGTMVTVSS
VL: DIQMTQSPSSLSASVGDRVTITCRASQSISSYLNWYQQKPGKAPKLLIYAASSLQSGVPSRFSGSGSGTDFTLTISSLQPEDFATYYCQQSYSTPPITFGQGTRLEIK
notes: as for B1
% activation, with 200 pM human Leptin [1]: 66% | % activation, without human Leptin [1]: 13% | EC50, STAT3-Luc reporter, with 200 pM human Leptin [1]: 5.23e-11 M | EC50, STAT3-Luc reporter, without human Leptin [1]: 0.212 nM | MFI (human LEPR CRH1 (D1)-MMH): 20 MFI | MFI [2]: 2930 MFI | MFI [3]: 2060 MFI | MFI [4]: 42 MFI | MFI (human LEPR Ig (D3)-MMH): 24 MFI | MFI (human LEPR CRH2-MMH): 15 MFI | MFI (human LEPR FNIII-MMH): 13 MFI | MFI [5]: 43 MFI

B3: H4H18438P2 (antibody, human IgG4, V domains shown)
VH: QVQLVESGGGVVQPGRSLRLSCAASGFSFNTYGMHWVRQAPGKGLEWVTIIWYDGSIKYYADSVKGRFTISRDNSKNTLYLQMNSLRAEDTAVYYCARGGYSGYLYFDYWGQGTLVTVSS
VL: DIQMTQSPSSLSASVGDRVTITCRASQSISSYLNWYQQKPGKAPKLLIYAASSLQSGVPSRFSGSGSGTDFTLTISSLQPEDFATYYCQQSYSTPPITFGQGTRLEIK
notes: as for B1
% activation, with 200 pM human Leptin [1]: 76% | % activation, without human Leptin [1]: 5% | EC50, STAT3-Luc reporter, with 200 pM human Leptin [1]: 2.02e-11 M | EC50, STAT3-Luc reporter, without human Leptin [1]: 1.49 nM | MFI (human LEPR CRH1 (D1)-MMH): 13 MFI | MFI [2]: 18900 MFI | MFI [3]: 6570 MFI | MFI [4]: 8880 MFI | MFI (human LEPR Ig (D3)-MMH): 30 MFI | MFI (human LEPR CRH2-MMH): 165 MFI | MFI (human LEPR FNIII-MMH): 25 MFI | MFI [5]: 468 MFI

B4: H4H18417P2 (antibody, human IgG4, V domains shown)
VH: QVQLVESGGGVVQPGRSLRLSCAASGFTFSTYGMHWVRQAPGKGLEWVSVISYDESNKYYADSVKGRFTISRDNSKNALYLQMNSLRNEDTAVYYCARDRPFGLVTGWFDPWGQGTLVTVSS
VL: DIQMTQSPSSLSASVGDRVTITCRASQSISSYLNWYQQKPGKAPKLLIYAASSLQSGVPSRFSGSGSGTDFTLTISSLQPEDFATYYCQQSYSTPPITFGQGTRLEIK
notes: as for B1
% activation, with 200 pM human Leptin [1]: 87% | % activation, without human Leptin [1]: 5% | EC50, STAT3-Luc reporter, with 200 pM human Leptin [1]: 5.23e-10 M | EC50, STAT3-Luc reporter, without human Leptin [1]: 0.153 nM | MFI (human LEPR CRH1 (D1)-MMH): 10 MFI | MFI [2]: 16000 MFI | MFI [3]: 3330 MFI | MFI [4]: 5500 MFI | MFI (human LEPR Ig (D3)-MMH): 17 MFI | MFI (human LEPR CRH2-MMH): 39 MFI | MFI (human LEPR FNIII-MMH): 14 MFI | MFI [5]: 37 MFI
